Measurements from PMC11497598.

What was measured:
Assay in all cases: analytical SEC
Conditions in all cases: cell culture supernatant of Expi293F cells; parent: est. 72; read off a plot
[1] = target: B/Iowa/06/2017 HA HA1 T211L
[2] = target: B/Iowa/06/2017 HA HA2 H22W
[3] = target: B/Iowa/06/2017 HA HA2 H22F
[4] = target: B/Iowa/06/2017 HA HA2 E113N
[5] = target: B/Iowa/06/2017 HA HA2 91V
[6] = target: B/Iowa/06/2017 HA HA1 152W
[7] = target: B/Iowa/06/2017 HA HA2 111L
[8] = target: B/Iowa/06/2017 HA HA1 T218I
[9] = target: B/Iowa/06/2017 HA HA2 67A
[10] = target: B/Iowa/06/2017 HA HA2 H114F
[11] = target: B/Iowa/06/2017 HA HA2 H114N

Substance: wild-type soluble hemagglutinin (HA) of influenza B/Iowa/06/2017 HA1:T211L
- other: trimer fraction [1]: 95%

Substance: wild-type soluble hemagglutinin (HA) of influenza B/Iowa/06/2017 HA2:H22W
- other: trimer fraction [2]: 81%

Substance: wild-type soluble hemagglutinin (HA) of influenza B/Iowa/06/2017 HA2:H22F
- other: trimer fraction [3]: 91%

Substance: wild-type soluble hemagglutinin (HA) of influenza B/Iowa/06/2017 HA2:E113N
- other: trimer fraction [4]: 96%

Substance: wild-type soluble hemagglutinin (HA) of influenza B/Iowa/06/2017 HA2:91V
- other: trimer fraction [5]: 77%

Substance: wild-type soluble hemagglutinin (HA) of influenza B/Iowa/06/2017 HA1:152W
- other: trimer fraction [6]: 81%

Substance: wild-type soluble hemagglutinin (HA) of influenza B/Iowa/06/2017 HA2:111L
- other: trimer fraction [7]: 55%

Substance: wild-type soluble hemagglutinin (HA) of influenza B/Iowa/06/2017 HA1:T218I
- other: trimer fraction [8]: 82%

Substance: wild-type soluble hemagglutinin (HA) of influenza B/Iowa/06/2017 HA2:67A
- other: trimer fraction [9]: 64%

Substance: wild-type soluble hemagglutinin (HA) of influenza B/Iowa/06/2017 HA2:H114F
- other: trimer fraction [10]: 75%

Substance: wild-type soluble hemagglutinin (HA) of influenza B/Iowa/06/2017 HA2:H114N
- other: trimer fraction [11]: 57%
